The values below come from publication PMC6646387, “Identification of intracellular cavin target proteins reveals cavin-PP1alpha interactions regulate apoptosis” (Nature Communications, 2019).

The target in this test is T1, GFP-PP1α (UniProt P62136 1-330).
T1 construct: serine/threonine-protein phosphatase PP1alpha catalytic subunit (PP1α); construct provided by the Trinkle-Mulcahy Laboratory; printed both as GFP-PP1α and PP1α-GFP; also called PP1α-GFP; PP1alpha-GFP; source: MCF-7 or A431, transfected, in lysate
T1 sequence (P62136 whole entry): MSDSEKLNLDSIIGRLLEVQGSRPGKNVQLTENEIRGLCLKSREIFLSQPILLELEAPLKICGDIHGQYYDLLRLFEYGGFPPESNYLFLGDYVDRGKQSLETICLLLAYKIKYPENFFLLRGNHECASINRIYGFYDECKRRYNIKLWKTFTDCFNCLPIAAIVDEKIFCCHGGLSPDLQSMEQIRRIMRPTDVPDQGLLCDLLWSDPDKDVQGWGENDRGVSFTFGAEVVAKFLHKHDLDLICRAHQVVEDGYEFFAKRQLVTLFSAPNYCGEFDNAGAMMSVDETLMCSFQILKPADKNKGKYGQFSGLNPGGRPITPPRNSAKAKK
Nature of the test: single-molecule coincidence detection; PNS fraction of MCF-7 cells cotransfected with GFP-PP1α and Cherry-Cavin1 or Cherry-Cavin3, in PBS, diluted to about 1 nM; two-colour confocal detection; C = mCherry/(GFP+mCherry); oligomeric state from burst brightness. Conditions: partners not purified.

B1: mCherry-Cavin1 (natural protein, mouse, UniProt O54724 1-392, looked up)
chain: MEDVTLHIVERPYSGFPDASSEGPEPTQGEARATEEPSGTGSDELIKSDQVNGVLVLSLLDKIIGAVDQIQLTQAQLEERQAEMEGAVQSIQGELSKLGKAHATTSNTVSKLLEKVRKVSVNVKTVRGSLERQAGQIKKLEVNEAELLRRRNFKVMIYQDEVKLPAKLSVSKSLKESEALPEKEGDELGEGERPEDDTAAIELSSDEAVEVEEVIEESRAERIKRSGLRRVDDFKKAFSKEKMEKTKVRTRENLEKTRLKTKENLEKTRHTLEKRMNKLGTRLVPVERREKLKTSRDKLRKSFTPDHVVYARSKTAVYKVPPFTFHVKKIREGEVEVLKATEMVEVGPEDDEVGAERGEATDLLRGSSPDVHTLLEITEESDAVLVDKSDSD
notes: Murine Cavin-1 (PTRF, caveolae-associated protein 1); oligomeric in MCF-7 cells by burst brightness; also called mCherry-tagged Cavin1; source: MCF-7, transfected, in lysate (cytosolic or PNS fraction)
As to B1, the coincidence ratio was found to be 0.7.

B2: mCherry-Cavin3 (natural protein, mouse, UniProt Q91VJ2 1-260, looked up)
chain: MGESALEPGPVPETPAGGPVHAVTVVTLLEKLATMLEALRERQGGLAERQGGLAGSVRRIQSGLGALSRSHDTTSNTLTQLLAKAERVGSHADAAQERAVRRAAQVQRLEANHGLLVARGKLHVLLFKEETEIPARAFQKVPELLGPEDQLVLGPDQPEDEVGESSEEEPVESRAQRLRRTGLQKVQSLKRALSSRKAAQPTPVKPPRVGPVRSSEGPSEGQPAAQPEMESELETALEPEPPQPTKEDPEKPVLQIESAA
notes: Murine Cavin-3 (PRKCDBP), amplified from NIH-3T3 fibroblast cDNA, in an mCherry vector; also called mCherry-tagged Cavin3; source: MCF-7, transfected, in lysate (cytosolic or PNS fraction)
Take B2: the coincidence ratio was determined as 0.5 and the “stoichiometry N” value came to 1.
